The test concerns the target mouse CBP TAZ1 (residues 340-439) (mouse, UniProt P45481 340-439). The test is described as follows: ITC. On the technique in general: In ITC the heat of successive injections is recorded.

mouse CBP TAZ1 (residues 340-439), sequence (P45481 340-439): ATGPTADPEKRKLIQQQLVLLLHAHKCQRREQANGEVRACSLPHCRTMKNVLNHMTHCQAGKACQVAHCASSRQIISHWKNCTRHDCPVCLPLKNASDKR

Broadly, the Kd is the constant that tells how readily two partners part at equilibrium. A low value points to tighter binding. The molecule HDYIYNLDESEGVCDLFD (domain or fragment) [human E2F4 transactivation domain (residues 390-407)] showed an equilibrium dissociation constant (Kd) of 700 nM.
